Results on two molecules are retold here after US20220380728A1 (EAST CAROLINA UNIVERSITY, published 2022).

For test [1], the target named is TGF-β produced by cells in the culture (mouse) (UniProt Q61315). As to the kind of experiment: cell-based or functional assay.
Test [2] has as its target T1, murine CD25 (IL-2 receptor alpha chain) on mouse T cells (mouse, UniProt P01590 22-268).
T1 construct: whole, on cells; Endogenous CD25 on cultured mouse Tregs and Tcons; also called IL-2Rα; surface CD25
T1 sequence (looked up): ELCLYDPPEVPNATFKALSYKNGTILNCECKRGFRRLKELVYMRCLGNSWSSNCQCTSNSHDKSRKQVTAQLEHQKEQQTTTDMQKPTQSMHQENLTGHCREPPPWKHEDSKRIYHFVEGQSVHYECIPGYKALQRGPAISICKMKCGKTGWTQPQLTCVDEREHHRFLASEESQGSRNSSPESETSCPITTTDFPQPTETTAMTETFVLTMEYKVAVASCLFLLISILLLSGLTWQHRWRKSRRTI
As to the kind of experiment: flow cytometry on 2D2-FIG Tregs; loss of APC-conjugated PC61 staining.

Sequence of TGF-β produced by cells in the culture (mouse) (Q61315 whole entry): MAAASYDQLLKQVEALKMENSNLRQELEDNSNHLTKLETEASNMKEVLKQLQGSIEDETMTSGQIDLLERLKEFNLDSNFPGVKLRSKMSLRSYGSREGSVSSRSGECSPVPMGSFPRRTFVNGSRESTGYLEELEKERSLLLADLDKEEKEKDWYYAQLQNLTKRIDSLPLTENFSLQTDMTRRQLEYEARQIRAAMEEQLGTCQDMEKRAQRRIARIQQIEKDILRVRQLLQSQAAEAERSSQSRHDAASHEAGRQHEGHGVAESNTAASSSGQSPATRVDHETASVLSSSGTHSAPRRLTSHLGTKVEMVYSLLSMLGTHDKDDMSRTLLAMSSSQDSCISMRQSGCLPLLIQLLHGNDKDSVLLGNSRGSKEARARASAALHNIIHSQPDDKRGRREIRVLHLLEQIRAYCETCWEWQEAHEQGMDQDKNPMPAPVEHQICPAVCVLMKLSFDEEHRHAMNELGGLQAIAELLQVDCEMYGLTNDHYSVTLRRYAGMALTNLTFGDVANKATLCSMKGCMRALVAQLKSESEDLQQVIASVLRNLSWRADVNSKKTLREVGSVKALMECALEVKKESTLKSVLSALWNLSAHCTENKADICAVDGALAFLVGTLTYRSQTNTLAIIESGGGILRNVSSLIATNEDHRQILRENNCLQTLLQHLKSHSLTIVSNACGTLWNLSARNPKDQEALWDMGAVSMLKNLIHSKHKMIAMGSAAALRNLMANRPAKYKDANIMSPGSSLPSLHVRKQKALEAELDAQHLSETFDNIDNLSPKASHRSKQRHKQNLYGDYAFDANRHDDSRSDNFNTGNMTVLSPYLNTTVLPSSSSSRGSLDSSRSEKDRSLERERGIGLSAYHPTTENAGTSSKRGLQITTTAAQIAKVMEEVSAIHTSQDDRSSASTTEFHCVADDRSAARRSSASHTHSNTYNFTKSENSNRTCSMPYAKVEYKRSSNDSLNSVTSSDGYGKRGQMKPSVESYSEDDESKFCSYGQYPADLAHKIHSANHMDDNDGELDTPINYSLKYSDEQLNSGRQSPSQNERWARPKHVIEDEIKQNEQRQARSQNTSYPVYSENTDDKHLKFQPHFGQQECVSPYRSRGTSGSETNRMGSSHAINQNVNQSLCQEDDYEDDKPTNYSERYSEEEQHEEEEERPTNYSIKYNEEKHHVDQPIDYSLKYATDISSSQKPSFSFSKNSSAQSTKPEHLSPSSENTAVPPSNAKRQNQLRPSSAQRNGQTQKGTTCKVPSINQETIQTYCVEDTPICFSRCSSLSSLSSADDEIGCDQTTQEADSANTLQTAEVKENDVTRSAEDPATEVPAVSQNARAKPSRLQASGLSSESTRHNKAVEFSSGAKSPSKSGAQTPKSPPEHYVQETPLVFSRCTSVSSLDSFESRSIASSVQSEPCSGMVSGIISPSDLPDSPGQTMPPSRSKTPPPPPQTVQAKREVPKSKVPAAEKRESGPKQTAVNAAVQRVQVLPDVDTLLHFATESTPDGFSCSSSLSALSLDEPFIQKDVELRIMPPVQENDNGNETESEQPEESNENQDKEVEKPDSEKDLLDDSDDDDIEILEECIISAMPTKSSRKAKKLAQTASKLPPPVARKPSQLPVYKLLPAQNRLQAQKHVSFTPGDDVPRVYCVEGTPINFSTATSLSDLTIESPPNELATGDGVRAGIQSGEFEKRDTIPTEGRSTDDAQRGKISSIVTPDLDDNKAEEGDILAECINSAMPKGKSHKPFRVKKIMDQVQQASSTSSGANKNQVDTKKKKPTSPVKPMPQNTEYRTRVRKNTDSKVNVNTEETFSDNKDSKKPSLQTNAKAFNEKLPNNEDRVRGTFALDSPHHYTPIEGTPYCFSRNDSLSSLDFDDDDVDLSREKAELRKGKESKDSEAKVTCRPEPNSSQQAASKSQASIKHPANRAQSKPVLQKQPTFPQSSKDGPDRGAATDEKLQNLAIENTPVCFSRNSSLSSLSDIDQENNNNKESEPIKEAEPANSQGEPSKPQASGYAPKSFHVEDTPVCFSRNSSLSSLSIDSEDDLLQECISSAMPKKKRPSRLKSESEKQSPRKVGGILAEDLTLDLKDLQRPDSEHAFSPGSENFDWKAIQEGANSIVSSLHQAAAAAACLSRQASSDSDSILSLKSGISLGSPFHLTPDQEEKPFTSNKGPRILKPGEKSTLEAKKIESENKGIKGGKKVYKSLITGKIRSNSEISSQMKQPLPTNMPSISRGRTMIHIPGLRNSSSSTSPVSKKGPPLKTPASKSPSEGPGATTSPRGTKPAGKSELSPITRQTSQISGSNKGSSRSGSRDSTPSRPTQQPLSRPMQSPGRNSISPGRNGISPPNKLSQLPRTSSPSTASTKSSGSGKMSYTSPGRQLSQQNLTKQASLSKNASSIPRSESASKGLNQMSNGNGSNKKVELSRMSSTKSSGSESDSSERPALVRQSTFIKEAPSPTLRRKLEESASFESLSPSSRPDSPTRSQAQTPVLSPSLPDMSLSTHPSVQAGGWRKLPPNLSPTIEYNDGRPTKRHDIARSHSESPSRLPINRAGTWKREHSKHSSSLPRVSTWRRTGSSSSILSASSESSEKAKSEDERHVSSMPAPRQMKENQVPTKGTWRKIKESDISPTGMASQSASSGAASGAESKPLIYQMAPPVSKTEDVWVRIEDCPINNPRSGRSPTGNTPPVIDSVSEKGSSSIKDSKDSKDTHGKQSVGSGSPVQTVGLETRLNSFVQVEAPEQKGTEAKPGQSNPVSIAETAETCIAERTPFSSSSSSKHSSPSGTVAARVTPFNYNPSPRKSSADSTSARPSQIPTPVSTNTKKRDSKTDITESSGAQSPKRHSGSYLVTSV

Consider “1D11.16.8 anti-mouse-TGF-β1/2/3 monoclonal antibody (mouse IgG1)”, for which the FOXP3+ Treg percentages during secondary activation (1D11 at 50 µg/ml) in test [1] is less than 50%.

B1: PC61 anti-CD25 monoclonal antibody (PC61-5.3 hybridoma, rat IgG1, lambda) (antibody, V domains shown)
VH: QVQLQQSGAELVRPGTSVKLSCKVSGDTITAYYIHFVKQRPGQGLEWIGRIDPEDDSTEYAEKFKNKATITANTSSNTAHLKYSRLTSEDTATYFCTTDNMGATEFVYWGQGTLVTVSS
VL: QVVLTQPKSVSASLESTVKLSCKLNSGNIGSYYMHWYQQREGRSPTNLIYRDDKRPDGAPDRFSGSIDISSNSAFLTINNVQTEDEAMYFCHSYDGRMYIFGGGTKLTVLG
notes: also called PC61 mAb; anti-CD25 PC61 mAb
For B1, the binding result in test [2] is recorded as “binds”.
